The values that follow come from paper PMC6960285, “Unique Microbial Catabolic Pathway for the Human Core N-Glycan Constituent Fucosyl-α-1,6-N-Acetylglucosamine-Asparagine” (mBio, 2020).

For test [1], the target named is His-tagged AsnA2, N(4)-(β-N-acetylglucosaminyl)-L-asparaginase (glycosylasparaginase) of Lactobacillus casei BL23 (Lactobacillus casei BL23). Description: SEC; size exclusion chromatography of purified His-tagged AsnA2 on a HiPrep 16/60 Sephacryl S-300 HR column, calibrated with five standard proteins; native molecular weight estimated.
A further test addresses T1, AlfC (Lacticaseibacillus paracasei, UniProt A0A422MHI3).
T1 construct: gene BN194_28780; 6xHis-AlfC from E. coli DH10B with pQEalfC, purified as earlier published
T1 sequence (A0A422MHI3 1-344): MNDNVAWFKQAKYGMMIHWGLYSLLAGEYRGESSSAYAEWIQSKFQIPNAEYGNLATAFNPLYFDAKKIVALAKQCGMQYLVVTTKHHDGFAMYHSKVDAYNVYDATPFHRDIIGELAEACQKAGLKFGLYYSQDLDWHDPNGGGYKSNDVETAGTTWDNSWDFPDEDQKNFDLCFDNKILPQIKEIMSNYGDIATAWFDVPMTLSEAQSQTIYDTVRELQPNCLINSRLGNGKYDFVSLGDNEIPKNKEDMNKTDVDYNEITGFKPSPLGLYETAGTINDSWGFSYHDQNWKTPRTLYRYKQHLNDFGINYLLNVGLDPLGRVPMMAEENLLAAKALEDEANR
Description: transfucosylation, product by HPLC and NMR. In kind it is biochemical. The following applies: acceptor, 100 mM; donor 50 mM pNP-fuc; 100 mM Tris-HCl pH 7.0, 42°C.

Broadly, the stoichiometry N is the number of molecules, sites or subunits per partner or assembly. For “His-tagged AsnA2, N(4)-(β-N-acetylglucosaminyl)-L-asparaginase (glycosylasparaginase) of Lactobacillus casei BL23 (enzyme)”, the stoichiometry N in test [1] is 2.

For the compound `CC(=O)N[C@@H]1[C@@H](O)[C@H](O)[C@@H](CO)O[C@H]1NC(=O)C[C@H](N)C(=O)O` [GlcNAc-Asn], the “transfucosylation, product by HPLC and NMR” value on AlfC is recorded as “the ability of AlfC to use GlcNAc-Asn as the acceptor was tested”.
